Data published in publication PMC2995041.

B1: 1SD*/2DD dsDNA 29 bp (dsDNA)
DNA 1: GCGCATATGGAGCGTTTCCAAAGTCTTAG
DNA 2: CTAAGACTTTGGAAACGCTCCATATGCGC

Columns and labels:
Assay in all cases: EMSA
BLM HRDC domain WT [1] = molecular target: T1, BLM HRDC domain WT (Homo sapiens, UniProt P54132 1210-1294)
BLM HRDC Y1237A = BLM HRDC Y1237A (Homo sapiens, UniProt P54132 1210-1294, Y1237A)
BLM HRDC T1243A = BLM HRDC T1243A (Homo sapiens, UniProt P54132 1210-1294, T1243A)
BLM HRDC domain WT [2] = molecular target: T1, BLM HRDC domain WT; remark: listed apart in the source

T1 sequence (P54132 1210-1294): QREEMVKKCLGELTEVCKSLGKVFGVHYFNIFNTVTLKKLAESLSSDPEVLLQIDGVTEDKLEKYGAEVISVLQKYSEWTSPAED
Sequence of BLM HRDC T1243A (P54132 1210-1294 T1243A): as the sequence (P54132 1210-1294) above, with T34A counted along it
Sequence of BLM HRDC Y1237A (P54132 1210-1294 Y1237A): as the sequence (P54132 1210-1294) above, with Y28A counted along it

Row | Binder | Kd (BLM HRDC domain WT [1]) [µM] | binding result (BLM HRDC Y1237A) | binding result (BLM HRDC T1243A) | binding result (BLM HRDC domain WT [2])
1 | GCGCATATGGAGCGTTTCCAAAGTCTTAG (ssDNA) [1SD* ssDNA 29 nt] | ~100 | binds | binds | 
2 | B1 |  |  |  | no binding
